How the values were obtained:
[1] = target: the molecule itself; assay: SDS-PAGE and Western blot
[2] = target: the molecule itself; assay: SEC

Protein | binding result [1] | binding result [2]
C394S mutant of full length human adenosine A2a receptor with a C-terminal 10 histidine tag (receptor, UniProt P29274 1-412, looked up) MPIMGSSVYITVELAIAVLAILGNVLVCWAVWLNSNLQNVTNYFVVSLAAADIAVGVLAIPFAITISTGFCAACHGCLFIACFVLVLTQSSIFSLLAIAIDRYIAIRIPLRYNGLVTGTRAKGIIAICWVLSFAIGLTPMLGWNNCGQPKEGKNHSQGCGEGQVACLFEDVVPMNYMVYFNFFACVLVPLLLMLGVYLRIFLAARRQLKQMESQPLPGERARSTLQKEVHAAKSLAIIVGLFALCWLPLHIINCFTFFCPDCSHAPLWLMYLAIVLSHTNSVVNPFIYAYRIREFRQTFRKIIRSHVLRQQEPFKAAGTSARVLAAHGSDGEQVSLRLNGHPPGVWANGSAPHPERRPNGYALGLVSGGSAQESQGNTGLPDVELLSHELKGVSPEPPGLDDPLAQDGAGVS | binds | 
spin labeled wild type full length human adenosine A2a receptor with a C-terminal 10 histidine tag (receptor, UniProt P29274 1-412, looked up, nitroxide radical MTSL spin label attached to free cysteines (thiol of C394)) MPIMGSSVYITVELAIAVLAILGNVLVCWAVWLNSNLQNVTNYFVVSLAAADIAVGVLAIPFAITISTGFCAACHGCLFIACFVLVLTQSSIFSLLAIAIDRYIAIRIPLRYNGLVTGTRAKGIIAICWVLSFAIGLTPMLGWNNCGQPKEGKNHSQGCGEGQVACLFEDVVPMNYMVYFNFFACVLVPLLLMLGVYLRIFLAARRQLKQMESQPLPGERARSTLQKEVHAAKSLAIIVGLFALCWLPLHIINCFTFFCPDCSHAPLWLMYLAIVLSHTNSVVNPFIYAYRIREFRQTFRKIIRSHVLRQQEPFKAAGTSARVLAAHGSDGEQVSLRLNGHPPGVWANGSAPHPERRPNGYALGLVSGGSAQESQGNTGLPDVELLSHELKGVCPEPPGLDDPLAQDGAGVS |  | binds

From article PMC5039092 (FEBS letters, 2016)
